In PMC6439443:

Molecular target: High-mannose IgG1 antibody (human)
Test: SPR

## EndoS2 E186L (catalytically inactive EndoS2 variant) (from UniProt T1WGN1 44-843) (enzyme)
  Kd: > 100 µM
